Laboratory results from PMC9628034.

Target: apolipoprotein E, apoE4 isoform, of human cerebrospinal fluid (human (endogenous in CSF)) (UniProt P02649)
Test: native gel or EMSA; blue-native PAGE 4-16% of unheated AD CSF; western blot with AB178479; dimer/monomer quotient from band intensities

ratio D/M (apoE dimer/monomer quotient): 0.24
Substance: apolipoprotein E, apoE4 isoform, of human cerebrospinal fluid (from UniProt P02649 19-317) (natural protein)
